Eleven molecules from patent publication US20130195871A1 (AbbVie / Abbott, published 2013) can be followed below.

The target of experiment [1] is T1, Recombinant Human ErbB3/FC Chimera-His tag (human, UniProt P21860 20-643).
T1 construct: bought reagent
The experiment in a line: SPR (Biacore). (In SPR one partner is held on a chip, and binding of the other changes the refractive index at the surface.)
Procedure: (§1) The BIACORE assay (Biacore, Inc, Piscataway, N.J.) determined the affinity of antibodies or DVD-Ig proteins with kinetic measurements of on-rate and off-rate constants. Binding of antibodies or DVD-Ig proteins to a target antigen (for example, a purified recombinant target antigen) was determined by surface plasmon resonance-based measurements with a Biacore® 1000 or 3000 instrument (Biacore AB, Uppsala. Sweden) using running HBS-EP (10 mM HEPES [pH 7.4], 150 mM NaCl, 3 mM EDTA, and 0.005% surfactant P20) at 25° C. […] For example, approximately 5000 RU of goat anti-mouse IgG, (Fcγ), fragment specific polyclonal antibody (Pierce Biotechnology Inc, Rockford, Ill.) diluted in 10 mM sodium acetate (pH 4.5) was directly immobilized across a CM5 research grade biosensor chip using a standard amine coupling kit according to manufacturer's instructions and procedures at 25 μg/ml. Unreacted moieties on the biosensor surface were blocked with ethanolamine. Modified carboxymethyl dextran surface in flowcell 2 and 4 was used as a reaction surface. Unmodified carboxymethyl dextran without goat anti-mouse IgG in flow cell 1 and 3 was used as the reference surface. For kinetic analysis, rate equations derived from the 1:1 Langmuir binding model were fitted simultaneously to association and dissociation phases of all eight injections (using global fit analysis) with the use of Biaevaluation 4.0.1 software. Purified antibodies or DVD-Ig proteins were diluted in HEPES-buffered saline for capture across goat anti-mouse IgG specific reaction surfaces. Antibodies or DVD-Ig proteins to be captured as a ligand (25 μg/ml) were injected over reaction matrices at a flow rate of 5 μl/minute. The association and dissociation rate constants, kₒₙ (M⁻¹s⁻¹) and koff (s⁻¹) were determined under a continuous flow rate of 25 μl/minute. Rate constants were derived by making kinetic binding measurements at different antigen concentrations ranging from 10-200 nM. The equilibrium dissociation constant (M) of the reaction between antibodies or DVD-Ig proteins and the target antigen was then calculated from the kinetic rate constants by the following formula: KD=koff/kₒₙ. Binding was recorded as a function of time and kinetic rate constants were calculated.

The target in experiment [2] is T2, Recombinant Human EGFR ECD (human, UniProt P00533 25-645).
T2 construct: extracellular domain; bought reagent
The experiment in a line: SPR (Biacore), N-terminal VD.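 Further: capture of antibodies or DVD-Ig proteins on an anti-mouse IgG chip surface, recombinant antigen injected at 10–200 nM in HBS-EP running buffer at 25 °C.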

Experiment [3] concerns the target T3, Recombinant Human IGF1R (human, UniProt P08069 31-932).
T3 construct: bought reagent
The experiment in a line: SPR (Biacore), N-terminal VD.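 Further: capture of antibodies or DVD-Ig proteins on an anti-mouse IgG chip surface, recombinant antigen injected at 10–200 nM in HBS-EP running buffer at 25 °C.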

The target in experiment [4] is T2, Recombinant Human EGFR ECD. Briefly: SPR (Biacore), C-terminal VD.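 Further: surface plasmon resonance with DVD-Ig proteins captured on an anti-IgG chip and recombinant antigen flowed over in HBS-EP buffer, Langmuir global fit, KD taken as koff/kon.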
Procedure: as §1
The target in experiment [5] is T1, Recombinant Human ErbB3/FC Chimera-His …. The experiment in a line: SPR (Biacore), C-terminal VD.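 Further: surface plasmon resonance with DVD-Ig proteins captured on an anti-IgG chip and recombinant antigen flowed over in HBS-EP buffer, Langmuir global fit, KD taken as koff/kon.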
Procedure: as §1
For experiment [6], the target named is T3, Recombinant Human IGF1R. Briefly: SPR (Biacore).
Procedure: as §1

Broadly, the Kd is the free concentration of one partner at which half of the binding sites on the other are occupied at equilibrium, for simple one-to-one binding. As a reminder, the koff is the first-order rate constant of dissociation. As a reminder, the kon is the rate constant with which the complex forms.

B1: DVD2238 (bispecific antibody)
VH: QVQLQQWGAGLLKPSETLSLTCAVYGGSFSGYYWSWIRQPPGKGLEWIGEINHSGSTNYNPSLKSRVTISVETSKNQFSLKLSSVTAADTAVYYCARDKWTWYFDLWGRGTLVTVSSASTKGPEVQLVESGGGLVQPGGSLRLSCAASGFTFSIYSMNWVRQAPGKGLEWVSYISSSSSTIYYADSVKGRFTISRDNAKNSLYLQMNSLRDEDTAVYYCARDRGDFDAFDIWGQGTMVTVSS
VL: DIEMTQSPDSLAVSLGERATINCRSSQSVLYSSSNRNYLAWYQQNPGQPPKLLIYWASTRESGVPDRFSGSGSGTDFTLTISSLQAEDVAVYYCQQYYSTPRTFGQGTKVEIKRTVAAPDIQMTQSPSSLSASVGDRVTITCQASQDITNYLNWYQQKPGKAPKLLIYDASNLETGVPSRFSGSGSGTDFTFTISSLQPEDIATYNCQQCENFPITFGQGTRLEIK
notes: DVD-Ig, outer AB062 / inner AB063
For B1, in experiment [1], the Kd came out at 5.9 nM, the koff is 0.0003 s⁻¹ and the kon came out at 51000 M⁻¹ s⁻¹.

B2: DVD2242 (bispecific antibody)
VH: QVQLQQWGAGLLKPSETLSLTCAVYGGSFSGYYWSWIRQPPGKGLEWIGEINHSGSTNYNPSLKSRVTISVETSKNQFSLKLSSVTAADTAVYYCARDKWTWYFDLWGRGTLVTVSSASTKGPSVFPLAPEVQLVESGGGLVQPGGSLRLSCAASGFTFSIYSMNWVRQAPGKGLEWVSYISSSSSTIYYADSVKGRFTISRDNAKNSLYLQMNSLRDEDTAVYYCARDRGDFDAFDIWGQGTMVTVSS
VL: B1 VL
notes: as for B1
As to B2, in experiment [1], the Kd worked out at 7.6 nM, the koff is 0.00051 s⁻¹ and the kon amounted to 67000 M⁻¹ s⁻¹.

B3: DVD2349 (bispecific antibody)
VH: EVQLVESGGGLVQPGGSLRLSCAASGFSLTNYGVHWVRQAPGKGLEWLGVGWSGGNTDYNTPFTSRLTINKDNSKNTVYLQMNSLRAEDTAVYYCARALTWYDYEFAYWGQGTLVTVSSASTKGPQVQLQESGPGLVKPSQTLSLTCTVSGYSISSDFAWNWIRQPPGKGLEWMGYISYSGNTRYQPSLKSRITISRDTSKNQFFLKLNSVTAADTATYYCVTAGRGFPYWGQGTLVTVSS
VL: DILLTQSPGTLSLSPGERATLSCRASQSIYTNIHWYQQKPGQAPRLLIKYASESISGIPDRFSGSGSGTDFTLTISRLEPEDFAVYYCQQNLNWPTTFGQGTKLEIKRTVAAPDIQMTQSPSSMSVSVGDRVTITCHSSQDINSNIGWLQQKPGKSFKGLIYHGTNLDDGVPSRFSGSGSGTDYTLTISSLQPEDFATYYCVQYAQFPWTFGGGTKLEIK
With B3, in experiment [2], the Kd was found to be 0.76 nM, the koff amounted to 0.00045 s⁻¹ and the kon was found to be 580000 M⁻¹ s⁻¹.

B4: DVD2284 (bispecific antibody)
VH: EVQLVQSGAEVKKPGSSVKVSCKASGGTFSSYAISWVRQAPGQGLEWMGGIIPIFGTANYAQKFQGRVTITADKSTSTAYMELSSLRSEDTAVYYCARAPLRFLEWSTQDHYYYYYMDVWGKGTTVTVSSASTKGPQVQLQESGPGLVKPSQTLSLTCTVSGYSISSDFAWNWIRQPPGKGLEWMGYISYSGNTRYQPSLKSRITISRDTSKNQFFLKLNSVTAADTATYYCVTAGRGFPYWGQGTLVTVSS
VL: SSELTQDPAVSVALGQTVRITCQGDSLRSYYATWYQQKPGQAPILVIYGENKRPSGIPDRFSGSSSGNTASLTITGAQAEDEADYYCKSRDGSGQHLVFGGGTKLTVLGQPKAAPDIQMTQSPSSMSVSVGDRVTITCHSSQDINSNIGWLQQKPGKSFKGLIYHGTNLDDGVPSRFSGSGSGTDYTLTISSLQPEDFATYYCVQYAQFPWTFGGGTKLEIK
B4: in the experiment with Recombinant Human IGF1R [3], the Kd turned out to be 7.4 nM, the koff came out at 0.00019 s⁻¹ and the kon is 26000 M⁻¹ s⁻¹. For the same molecule, in experiment [4], the Kd is 6.1 nM, the koff stood at 0.00016 s⁻¹ and the kon was 26000 M⁻¹ s⁻¹.

B5: DVD2268 (bispecific antibody)
VH: EVQLVESGGGLVQPGGSLRLSCAASGFTFTDYTMDWVRQAPGKGLEWVADVNPNSGGSIYNQRFKGRFTLSVDRSKNTLYLQMNSLRAEDTAVYYCARNLGPSFYFDYWGQGTLVTVSSASTKGPQVQLQESGPGLVKPSETLSLTCTVSGGSVSSGDYYWTWIRQSPGKGLEWIGHIYYSGNTNYNPSLKSRLTISIDTSKTQFSLKLSSVTAADTAIYYCVRDRVTGAFDIWGQGTMVTVSS
VL: DIQMTQSPSSLSASVGDRVTITCKASQDVSIGVAWYQQKPGKAPKLLIYSASYRYTGVPSRFSGSGSGTDFTLTISSLQPEDFATYYCQQYYIYPYTFGQGTKVEIKRTVAAPDIQMTQSPSSLSASVGDRVTITCQASQDISNYLNWYQQKPGKAPKLLIYDASNLETGVPSRFSGSGSGTDFTFTISSLQPEDIATYFCQHFDHLPLAFGGGTKVEIK
As for B5, in experiment [4], the Kd amounted to 18 nM, the koff was 0.00035 s⁻¹ and the kon turned out to be 19000 M⁻¹ s⁻¹.

B6: DVD2348 (bispecific antibody)
VH: QVQLQESGPGLVKPSQTLSLTCTVSGYSISSDFAWNWIRQPPGKGLEWMGYISYSGNTRYQPSLKSRITISRDTSKNQFFLKLNSVTAADTATYYCVTAGRGFPYWGQGTLVTVSSASTKGPEVQLVESGGGLVQPGGSLRLSCAASGFSLTNYGVHWVRQAPGKGLEWLGVGWSGGNTDYNTPFTSRLTINKDNSKNTVYLQMNSLRAEDTAVYYCARALTWYDYEFAYWGQGTLVTVSS
VL: DIQMTQSPSSMSVSVGDRVTITCHSSQDINSNIGWLQQKPGKSFKGLIYHGTNLDDGVPSRFSGSGSGTDYTLTISSLQPEDFATYYCVQYAQFPWTFGGGTKLEIKRTVAAPDILLTQSPGTLSLSPGERATLSCRASQSIYTNIHWYQQKPGQAPRLLIKYASESISGIPDRFSGSGSGTDFTLTISRLEPEDFAVYYCQQNLNWPTTFGQGTKLEIK
Turning to B6, in experiment [2], the Kd was found to be 8.5 nM, the koff is 0.00024 s⁻¹ and the kon worked out at 28000 M⁻¹ s⁻¹.

B7: DVD2249 (bispecific antibody)
VH: EVQLLESGGGLVQPGGSLRLSCAASGFTFSHYVMAWVRQAPGKGLEWVSSISSSGGWTLYADSVKGRFTISRDNSKNTLYLQMNSLRAEDTAVYYCTRGLKMATIFDYWGQGTLVTVSSASTKGPSVFPLAPQVQLQQWGAGLLKPSETLSLTCAVYGGSFSGYYWSWIRQPPGKGLEWIGEINHSGSTNYNPSLKSRVTISVETSKNQFSLKLSSVTAADTAVYYCARDKWTWYFDLWGRGTLVTVSS
VL: QSALTQPASVSGSPGQSITISCTGTSSDVGSYNVVSWYQQHPGKAPKLIIYEVSQRPSGVSNRFSGSKSGNTASLTISGLQTEDEADYYCCSYAGSSIFVIFGGGTKVTVLGTVAAPDIEMTQSPDSLAVSLGERATINCRSSQSVLYSSSNRNYLAWYQQNPGQPPKLLIYWASTRESGVPDRFSGSGSGTDFTLTISSLQAEDVAVYYCQQYYSTPRTFGQGTKVEIK
notes: DVD-Ig, outer AB116 / inner AB062
Take B7: in experiment [1], the Kd was determined as 5.6 nM, the koff was 0.00022 s⁻¹ and the kon was 39000 M⁻¹ s⁻¹.

B8: DVD2274 (bispecific antibody)
VH: EVQLVESGGGLVQPGGSLRLSCAASGFTFTDYTMDWVRQAPGKGLEWVADVNPNSGGSIYNQRFKGRFTLSVDRSKNTLYLQMNSLRAEDTAVYYCARNLGPSFYFDYWGQGTLVTVSSASTKGPQVQLQQWGAGLLKPSETLSLTCAVYGGSFSGYYWSWIRQPPGKGLEWIGEINHSGSTNYNPSLKSRVTISVETSKNQFSLKLSSVTAADTAVYYCARDKWTWYFDLWGRGTLVTVSS
VL: DIQMTQSPSSLSASVGDRVTITCKASQDVSIGVAWYQQKPGKAPKLLIYSASYRYTGVPSRFSGSGSGTDFTLTISSLQPEDFATYYCQQYYIYPYTFGQGTKVEIKRTVAAPDIEMTQSPDSLAVSLGERATINCRSSQSVLYSSSNRNYLAWYQQNPGQPPKLLIYWASTRESGVPDRFSGSGSGTDFTLTISSLQAEDVAVYYCQQYYSTPRTFGQGTKVEIK
notes: DVD-Ig, outer AB080 / inner AB062
With B8, the binding result in experiment [5] is recorded as “no binding (tested: 10-200 nM)”.

B9: DVD2214 (bispecific antibody)
VH: EVQLVQSGAEVKKPGSSVKVSCKASGGTFSSYAISWVRQAPGQGLEWMGGIIPIFGTANYAQKFQGRVTITADKSTSTAYMELSSLRSEDTAVYYCARAPLRFLEWSTQDHYYYYYMDVWGKGTTVTVSSASTKGPEVQLLESGGGLVQPGGSLRLSCTASGFTFSSYAMNWVRQAPGKGLEWVSAISGSGGTTFYADSVKGRFTISRDNSRTTLYLQMNSLRAEDTAVYYCAKDLGWSDSYYYYYGMDVWGQGTTVTVSS
VL: SSELTQDPAVSVALGQTVRITCQGDSLRSYYATWYQQKPGQAPILVIYGENKRPSGIPDRFSGSSSGNTASLTITGAQAEDEADYYCKSRDGSGQHLVFGGGTKLTVLGQPKAAPDIQMTQFPSSLSASVGDRVTITCRASQGIRNDLGWYQQKPGKAPKRLIYAASRLHRGVPSRFSGSGSGTEFTLTISSLQPEDFATYYCLQHNSYPCSFGQGTKLEIK
notes: DVD-Ig, outer AB075 / inner AB011
Turning to B9, in the experiment with Recombinant Human IGF1R [6], the Kd came out at 5.5 nM, the koff turned out to be 0.00014 s⁻¹ and the kon was determined as 26000 M⁻¹ s⁻¹.

B10: DVD2216 (bispecific antibody)
VH: B9 VH
VL: SSELTQDPAVSVALGQTVRITCQGDSLRSYYATWYQQKPGQAPILVIYGENKRPSGIPDRFSGSSSGNTASLTITGAQAEDEADYYCKSRDGSGQHLVFGGGTKLTVLGQPKAAPSVTLFPPDIQMTQFPSSLSASVGDRVTITCRASQGIRNDLGWYQQKPGKAPKRLIYAASRLHRGVPSRFSGSGSGTEFTLTISSLQPEDFATYYCLQHNSYPCSFGQGTKLEIK
notes: as for B9
As to B10, in the experiment with Recombinant Human IGF1R [6], the Kd worked out at 6.6 nM, the koff is 0.00012 s⁻¹ and the kon worked out at 19000 M⁻¹ s⁻¹.

B11: DVD2218 (bispecific antibody)
VH: EVQLVQSGAEVKKPGSSVKVSCKASGGTFSSYAISWVRQAPGQGLEWMGGIIPIFGTANYAQKFQGRVTITADKSTSTAYMELSSLRSEDTAVYYCARAPLRFLEWSTQDHYYYYYMDVWGKGTTVTVSSASTKGPSVFPLAPEVQLLESGGGLVQPGGSLRLSCTASGFTFSSYAMNWVRQAPGKGLEWVSAISGSGGTTFYADSVKGRFTISRDNSRTTLYLQMNSLRAEDTAVYYCAKDLGWSDSYYYYYGMDVWGQGTTVTVSS
VL: B9 VL
notes: as for B9
As to B11, in the experiment with Recombinant Human IGF1R [6], the Kd was 5.3 nM, the koff came to 0.00013 s⁻¹ and the kon came to 25000 M⁻¹ s⁻¹.
